Source: patent US20150376286A1 (Amgen, published 2015)

Tests used:
[1] = molecular target: T1, cynomolgus CGRP receptor (cynoCRLR + cynoRAMP1) (cynomolgus monkey); assay: cell-based or functional assay
T1 chain 1: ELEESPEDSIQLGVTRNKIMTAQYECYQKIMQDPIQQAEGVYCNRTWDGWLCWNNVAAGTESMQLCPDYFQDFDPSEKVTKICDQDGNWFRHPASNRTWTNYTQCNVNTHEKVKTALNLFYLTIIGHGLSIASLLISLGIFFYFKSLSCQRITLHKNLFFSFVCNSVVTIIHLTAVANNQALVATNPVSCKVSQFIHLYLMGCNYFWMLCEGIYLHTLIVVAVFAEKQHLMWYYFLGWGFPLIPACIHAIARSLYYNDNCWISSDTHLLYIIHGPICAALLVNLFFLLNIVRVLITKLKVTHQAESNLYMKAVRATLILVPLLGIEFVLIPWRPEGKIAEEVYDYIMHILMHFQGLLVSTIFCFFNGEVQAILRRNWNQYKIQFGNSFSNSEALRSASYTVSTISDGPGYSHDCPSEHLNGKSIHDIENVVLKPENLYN
T1 chain 2: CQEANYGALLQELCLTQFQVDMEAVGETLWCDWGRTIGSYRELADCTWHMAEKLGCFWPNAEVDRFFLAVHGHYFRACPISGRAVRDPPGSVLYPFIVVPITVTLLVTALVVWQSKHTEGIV

[2] = molecular target: T2, human amylin AMY1 receptor (hCTR + hRAMP1) (human, UniProt P30988 25-474); assay: cell-based or functional assay
[3] = molecular target: T3, human adrenomedullin receptor 1 (hCRLR + hRAMP2) (human, UniProt O60895 43-175); assay: cell-based or functional assay
[4] = molecular target: T4, human adrenomedullin receptor 2 (hCRLR + hRAMP3) (human, UniProt O60896 24-148); assay: cell-based or functional assay
[5] = molecular target: T5, chimeric CGRP receptor: CRLR chimera #1 (L24 to Q33) + RAMP1 wt (human/rat chimera; human, UniProt Q16602 1-461; O60894 27-148); assay: FACS on transfected 293-6E cells
T5 construct: also called CRLR L24-Q33+RAMP wt
Method: Cells were harvested after 72 hr, washed with PBS+0.5% BSA, and counted. Each transfected cell line was resuspended at a dilution of 5×10⁵ cells per 100 μl PBS/BSA. 100 μl of cell suspension was aliquot per well in a 96-well round-bottom plate (Falcon). The cells were pelleted at 1200 rpm for 5 min. […] Cells were incubated on ice for 1 hr. and then washed twice with PBS/BSA. […] Cells were incubated on ice in the dark for 1 hr. and then washed twice with PBS/BSA. Cells were resuspended in 200 μl PBS/BSA and analyzed using a FACS Calibur.

[6] = molecular target: T6, human CGRP receptor (CRLR + RAMP1) (human, UniProt Q16602 23-461; O60894 27-148); assay: immunohistochemistry, CGRP/CHO cells, staining intensity (visual score)
T6 construct: also called hCGRP R; huCGRP R
Method: (§1) 2-4×10⁶ cells were injected per colla plug (Integra LifeSciences Co., Plainsboro, N.J.). Colla plugs were embedded in OCT medium (Sakura Finetek Inc., Torrance, Calif.), frozen at −20° C. and cut into 20 μm sections using a cryostat. Sections were fixed with 4% paraformaldehyde for 1 hour at room temperature (RT) and subsequently washed in phosphate-buffered saline (PBS). Endogenous peroxidase was blocked with 3% H₂O₂/PBS for 15 min and sections were incubated in blocking solution (PBS with 3% normal goat serum (Vector Labs, Burlingame, Calif.) and 0.3% triton X-100) for 1 hour. […] Sections were cleared with xylene and cover slipped with Permount (Fisher Chemicals, Fair Lawn, N.J.). Immunoreactivity was analyzed using a Nikon E-800 microscope and associated software (Nikon, Melville, N.Y.).

[7] = molecular target: T2, human amylin AMY1 receptor (hCTR + …); assay: immunohistochemistry, MCF-7 cells endogenously expressing amylin receptors, staining intensity (visual score); the text says no staining was observed
Method: as §1

[8] = molecular target: T4, human adrenomedullin receptor 2 (hCRLR …); assay: immunohistochemistry, CHO cells expressing recombinant human adrenomedullin receptor 2 (CRLR+RAMP3), staining intensity (visual score); the text says no staining was observed
Method: as §1

[9] = molecular target: T3, human adrenomedullin receptor 1 (hCRLR …); assay: immunohistochemistry, HEK cells expressing recombinant human adrenomedullin receptor 1 (CRLR+RAMP2), staining intensity (visual score); the text says no staining was observed
Method: as §1

T4 sequence (O60896 24-148): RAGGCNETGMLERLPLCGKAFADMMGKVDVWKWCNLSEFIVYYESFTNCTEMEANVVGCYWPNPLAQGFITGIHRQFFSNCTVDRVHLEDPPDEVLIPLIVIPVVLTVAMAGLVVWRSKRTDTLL
T2 sequence (P30988 25-474): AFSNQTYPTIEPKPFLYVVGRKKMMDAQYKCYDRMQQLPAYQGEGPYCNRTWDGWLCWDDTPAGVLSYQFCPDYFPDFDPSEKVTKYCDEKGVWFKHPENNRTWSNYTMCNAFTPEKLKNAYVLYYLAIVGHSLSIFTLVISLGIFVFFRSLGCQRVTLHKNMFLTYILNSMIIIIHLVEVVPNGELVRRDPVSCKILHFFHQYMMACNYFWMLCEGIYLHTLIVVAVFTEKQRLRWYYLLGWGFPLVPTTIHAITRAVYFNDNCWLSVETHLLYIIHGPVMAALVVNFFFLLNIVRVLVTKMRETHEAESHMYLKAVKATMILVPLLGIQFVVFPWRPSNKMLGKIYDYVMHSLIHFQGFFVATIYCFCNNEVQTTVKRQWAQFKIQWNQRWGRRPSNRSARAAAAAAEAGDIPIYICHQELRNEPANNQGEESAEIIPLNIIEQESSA

cAMP assay IC50 [1]: 1.93 nM
cAMP assay IC50 [2]: > 1000 nM
cAMP assay IC50 [3]: > 1000 nM
cAMP assay IC50 [4]: > 1000 nM
binding result [5]: binds
binding result [6]: binds
binding result [7]: no binding
binding result [8]: no binding
binding result [9]: no binding
B1: 32H7 (antibody, human IgG2, kappa, V domains shown)
VH: QVQLVESGGGVVQPGRSLRLSCAASGFTFSSYGMHWVRQAPGKGLEWVAVIWYDGSNKYYADSVKGRFIISRDKSKNTLYLQMNSLRAEDTAVYYCARAGGIAAAGLYYYYGMDVWGQGTTVTVSS
VL: EIVLTQSPGTLSLSPGERATLSCRASQSVSSGYLTWYQQKPGQAPRLLIYGASSRATGIPDRFSGSGSGTDFTLTISRLEPEDFAVYYCQQYGNSLCRFGQGTKLEIKR
notes: also called 32H7.1G
